Measurements taken from patent US20190367631A1 (Regeneron, published 2019).
Blank lines part the entries; values can stand above or below the binder they belong to.

Legend:
[1] = target: T1, human MSR1 extracellular domain expressed with a N-terminal nonahistidine tag (His9-hMSR1); R&D Systems, Cat … (human, UniProt P21757 77-451); assay: SPR Biacore T200, 25 C, antibody captured by anti-human Fc, His9-hMSR1 injected; no dissociation seen, kd fixed at 1.00E-05;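 for kon: running buffer HBS-ET pH 7.4, rates from sensorgrams fitted to a 1:1 model including mass transport limitation, KD and half-life derived from the kinetic constants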
T1 construct: extracellular domain; Bought reagent; also called His-hMSR1; 9xHis-hMSR1
T1 sequence: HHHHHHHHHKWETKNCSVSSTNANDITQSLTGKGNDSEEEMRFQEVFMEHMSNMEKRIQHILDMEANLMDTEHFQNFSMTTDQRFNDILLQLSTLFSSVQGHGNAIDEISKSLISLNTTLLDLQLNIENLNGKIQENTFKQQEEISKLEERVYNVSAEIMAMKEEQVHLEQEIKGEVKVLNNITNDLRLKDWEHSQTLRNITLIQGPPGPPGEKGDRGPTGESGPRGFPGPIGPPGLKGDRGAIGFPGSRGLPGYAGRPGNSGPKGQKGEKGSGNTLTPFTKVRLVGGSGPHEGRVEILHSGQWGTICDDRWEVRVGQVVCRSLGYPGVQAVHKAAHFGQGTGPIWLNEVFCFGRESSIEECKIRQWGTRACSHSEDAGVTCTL
Experimental: All binding studies were performed in 10 mM HEPES, 300 mM NaCl, 3 mM EDTA, and 0.05% v/v Surfactant Tween-20, pH 7.4 (HBS-ET) running buffer at 25° C.
(§1) The association rate (kₐ) and dissociation rate (kd) were determined by fitting the real-time binding sensorgrams to a 1:1 binding model with mass transport limitation using Scrubber 2.0c curve-fitting software. Binding dissociation equilibrium constant (KD) and dissociative half-life (t½) were calculated from the kinetic rates as:

[2] = target: T1, human MSR1 extracellular domain …; assay: SPR Biacore T200, 25 C, antibody captured by anti-human Fc, His9-hMSR1 injected;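 note: running buffer HBS-ET pH 7.4, rates from sensorgrams fitted to a 1:1 model including mass transport limitation, KD and half-life derived from the kinetic constants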
[3] = target: T2, monkey MSR1 extracellular domain expressed with a N-terminal hexahistidine-myc-myc tag (HMM-mfMSR1) (monkey (Macaca fascicularis)); assay: SPR Biacore, 25 C, antibody captured;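 note: rates from 1:1 fit with mass transport limitation of real-time sensorgrams, HEPES-buffered saline with EDTA and Tween-20 at pH 7.4, KD and t½ derived from the kinetic rates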
T2 chain: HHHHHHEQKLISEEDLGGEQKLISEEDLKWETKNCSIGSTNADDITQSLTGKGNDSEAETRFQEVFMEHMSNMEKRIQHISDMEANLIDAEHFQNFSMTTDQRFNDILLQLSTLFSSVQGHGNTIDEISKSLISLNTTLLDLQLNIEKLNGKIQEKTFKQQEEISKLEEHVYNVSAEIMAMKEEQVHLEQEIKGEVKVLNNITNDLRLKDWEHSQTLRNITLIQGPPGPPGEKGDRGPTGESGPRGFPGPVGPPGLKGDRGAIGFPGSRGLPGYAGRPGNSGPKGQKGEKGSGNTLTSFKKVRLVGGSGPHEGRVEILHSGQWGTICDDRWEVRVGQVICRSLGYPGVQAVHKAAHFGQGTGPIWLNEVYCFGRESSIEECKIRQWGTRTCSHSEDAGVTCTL

[4] = target: T3, human MSR1 extracellular domain expressed with a N-terminal nonahistidine tag (His9-hMSR1); R&D Systems, Cat … (human, UniProt P21757 77-451); assay: SPR Biacore, 25 C, antibody captured;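 note: rates from 1:1 fit with mass transport limitation of real-time sensorgrams, HEPES-buffered saline with EDTA and Tween-20 at pH 7.4, KD and t½ derived from the kinetic rates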
T3 construct: extracellular domain; also called His-hMSR1; 9xHis-hMSR1; not shown: N-terminal nonahistidine tag
T3 sequence (looked up): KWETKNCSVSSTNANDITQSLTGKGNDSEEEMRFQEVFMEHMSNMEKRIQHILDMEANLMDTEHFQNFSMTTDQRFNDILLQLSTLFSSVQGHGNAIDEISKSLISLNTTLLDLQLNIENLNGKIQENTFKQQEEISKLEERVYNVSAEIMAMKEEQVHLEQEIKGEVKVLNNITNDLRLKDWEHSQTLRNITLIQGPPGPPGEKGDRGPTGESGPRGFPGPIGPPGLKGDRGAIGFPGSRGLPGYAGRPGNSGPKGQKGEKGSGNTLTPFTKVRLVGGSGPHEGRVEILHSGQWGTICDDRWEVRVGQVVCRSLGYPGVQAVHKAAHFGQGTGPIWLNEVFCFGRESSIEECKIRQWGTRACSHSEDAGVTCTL

[5] = target: T4, mouse MSR1 extracellular domain expressed with a N-terminal nonahistidine tag (His9-mMSR1); R&D Systems, Cat … (mouse, UniProt P30204 79-458); assay: BLI Octet, 25 C, antibody captured
T4 construct: extracellular domain; not shown: N-terminal nonahistidine tag
T4 sequence (looked up): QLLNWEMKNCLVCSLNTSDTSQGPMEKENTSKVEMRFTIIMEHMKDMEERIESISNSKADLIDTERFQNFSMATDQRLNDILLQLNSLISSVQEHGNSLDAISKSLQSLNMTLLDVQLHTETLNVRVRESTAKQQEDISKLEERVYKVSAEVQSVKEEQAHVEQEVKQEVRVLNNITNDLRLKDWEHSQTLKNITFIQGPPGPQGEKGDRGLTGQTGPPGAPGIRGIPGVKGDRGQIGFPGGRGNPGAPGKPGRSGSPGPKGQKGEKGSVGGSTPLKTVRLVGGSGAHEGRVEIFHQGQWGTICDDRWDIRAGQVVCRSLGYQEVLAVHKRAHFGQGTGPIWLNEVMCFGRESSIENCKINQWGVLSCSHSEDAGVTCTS

[6] = target: T2, monkey MSR1 extracellular domain …; assay: SPR Biacore, 37 C, antibody captured
Experimental: (§2) Binding affinities and kinetic constants of human anti-MSR1 antibodies for different MSR1 reagents were determined by real-time surface plasmon resonance (Biacore 4000). All binding studies were performed in 10 mM HEPES, 150 mM NaCl, 3 mM EDTA, and 0.05% v/v Surfactant Tween-20, pH 7.4 (HBS-ET) running buffer at 25° C. and 37° C.
as §1

[7] = target: T3, human MSR1 extracellular domain …; assay: SPR Biacore, 37 C, antibody captured
Experimental: as §2, §1

Kd [1]: ≤ 0.0499 nM
koff [1]: ≤ 1e-05 s⁻¹
t½ [1]: ≥ 1160 min
kon [2]: 200000 M⁻¹ s⁻¹
B1: H1H27754P-N297Q (antibody, human IgG1, V domains shown)
VH: EVQLVESGGGLVQPGGSLRLSCAASGFTFRTYAMTWVRQAPGKGLDWVSAITGDGGNTYYADSVKGRFTISRDNSKNTLYLQMNSLRAEDTAIYYCAKDQRFSFALYYFDYWGQGTLVTVSS
VL: DIQMTQSPSSVSASVGDRVTITCRASQGISSWLAWYQQKPGNAPKLLIYAAFSLQSGVPSRFSGSGSGTDFTLTISSLQPEDFATYYCQQANNFPWTFGQGTKVEIKR
notes: human IgG1 Fc with N297Q (EU)

Kd [1]: ≤ 0.0204 nM
koff [1]: ≤ 1e-05 s⁻¹
t½ [1]: ≥ 1160 min
kon [2]: 490000 M⁻¹ s⁻¹
B4: H1H21234N-N297Q-LP1 (antibody, human IgG1, V domains shown)
VH: QVQLQESGPGLVKPSETLSLTCTVTGGSISRNYWSWIRQPPGKGLEWIGYIYYSGSIDYNPSLKSRVTISVDTSKNQFSLKLSSMTAADTAVYYCARDRWNWKYGMDVWGQGTTVIVSS
VL: EIVLTQSPGTLSLSPGERATLSCRASQTVRNNYLAWYHQKPGQAPRLLIYGASSRATGIPDRFSGSGSGTDFTLTISRLEPEDFTVYYCHQYGNSPWTFGQGTKMEIKR
modifications: LXR agonist linker-payload LP1 clicked to azido-PEG3-amine on Q295 and Q297 (EU) of the heavy chain constant region
notes: antibody-drug conjugate; human IgG1 Fc with N297Q (EU); also called H1H21234N-LP1

Kd [3]: 7.9 nM
koff [3]: 0.00212 s⁻¹
kon [3]: 269000 M⁻¹ s⁻¹
t½ [3]: 5 min
Kd [4]: 5.45 nM
koff [4]: 0.00107 s⁻¹
kon [4]: 197000 M⁻¹ s⁻¹
t½ [4]: 11 min
binding result [5]: no binding (tested: 50 nM)
Kd [6]: 8.58 nM
koff [6]: 0.00349 s⁻¹
kon [6]: 407000 M⁻¹ s⁻¹
t½ [6]: 3.3 min
Kd [7]: 8.53 nM
koff [7]: 0.00204 s⁻¹
kon [7]: 239000 M⁻¹ s⁻¹
t½ [7]: 6 min
B5: H1H27729P-N297Q (antibody, V domains shown)
VH: QVQLVESGGGLVKPGGSLRLSCAASGFIFSDYYMSWIRQAPGKGLEWVSYISSSGTTIYGDSVKGRFTMSRDNAKNSLYLQMNSLRAEDTAVYYCARNYALFDYWGQGTLVTVSS
VL: DIQMTQSPSSLSASVGDRVTITCQASQDISKYLNWYQQKPGKAPKLLIYYTSNLETGVPSRFSGSGSGTDFTFTISSLQPEDIATYYCHQSDYLPFTFGPGTKVDIKR
notes: Human IgG1 Fc with N297Q point mutation

Kd [3]: 1.01 nM
koff [3]: 0.000749 s⁻¹
kon [3]: 744000 M⁻¹ s⁻¹
t½ [3]: 15 min
Kd [4]: 0.172 nM
koff [4]: 0.000305 s⁻¹
kon [4]: 1.78e+06 M⁻¹ s⁻¹
t½ [4]: 38 min
binding result [5]: no binding (tested: 50 nM)
Kd [6]: 1.55 nM
koff [6]: 0.0018 s⁻¹
kon [6]: 1.17e+06 M⁻¹ s⁻¹
t½ [6]: 6 min
B8: H1H27751P-N297Q (antibody, V domains shown)
VH: EVQLVESGGGLVQPGGSLRLSCAASGFTFSNYAMHWVRQAPGKGLEYVSAISSNGGSTYYADSVKGRITISRDNSKNTLYLQMGSLRAEDMAVYYCARGRPYYYYFGMDVWGQGTTVTVSS
VL: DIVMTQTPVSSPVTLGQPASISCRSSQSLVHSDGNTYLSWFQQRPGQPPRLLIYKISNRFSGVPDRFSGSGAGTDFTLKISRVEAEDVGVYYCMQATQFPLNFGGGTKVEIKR
notes: as for B5

binding result [5]: no binding (tested: 100 nM)
B9: H2aM21232N (antibody, V domains shown)
VH: QVQLQESGPGLVKPSETLSLTCTVSGGSISSYYWSWIRQPPGKGLEWIGYIYYSGSANYNPSLKSRVTISVDTSKNQFSLKLSSVTAADTAVYYCVRDRDLLLDHWGQGTLVTVSS
VL: not shown
notes: Human variable domains with mouse IgG2a Fc

Continued, binder first:

B2: H1H27754P-N297Q-LP1 (antibody, human IgG1, V domains shown)
VH: EVQLVESGGGLVQPGGSLRLSCAASGFTFRTYAMTWVRQAPGKGLDWVSAITGDGGNTYYADSVKGRFTISRDNSKNTLYLQMNSLRAEDTAIYYCAKDQRFSFALYYFDYWGQGTLVTVSS
VL: DIQMTQSPSSVSASVGDRVTITCRASQGISSWLAWYQQKPGNAPKLLIYAAFSLQSGVPSRFSGSGSGTDFTLTISSLQPEDFATYYCQQANNFPWTFGQGTKVEIKR
modifications: LXR agonist linker-payload LP1 clicked to azido-PEG3-amine on Q295 and Q297 (EU) of the heavy chain constant region
notes: antibody-drug conjugate; human IgG1 Fc with N297Q (EU); also called H1H27754P-LP1
Kd [1]: ≤ 0.0564 nM
koff [1]: ≤ 1e-05 s⁻¹
t½ [1]: ≥ 1160 min
kon [2]: 177000 M⁻¹ s⁻¹

B3: H1H27766P-N297Q (antibody, human IgG1, V domains shown)
VH: EVQLVESGGGLVQPGGSLRLSCAASGFTFSSFAMSWVRQAPGKELEWVSSISGRGGSTYYADSVRGRFTISRDNSKITLYLQMNSLRAEDTAVYYCAKDIVFRYTSSAYWYFDLWGRGTLVTVSS
VL: not shown
notes: human IgG1 Fc with N297Q (EU); also called H1H27766P2-N297Q
Kd [1]: ≤ 0.0583 nM
koff [1]: ≤ 1e-05 s⁻¹
t½ [1]: ≥ 1160 min
kon [2]: 172000 M⁻¹ s⁻¹

B6: H1H27731P-N297Q (antibody, V domains shown)
VH: QLQLQESGPGLVKPSETLSLTCTVSGGSISRISYYWGWIRQPPGKGLEWIGSIYDSGSTYYNPSLKSRVTISIDTSKNQFSLKLSSVTAADTAVYYCVRYSSSSAFAFDYWGQGTLVTVSS
VL: DIQMTQSPSSVSASVGDRVTITCRASQGISSWLAWYQQKPGKAPKLLIYAASSLQSGVPSRFSGSGSGTDFTLTISSLQPEDFATYYCQQANSFPFTFGPGTKVDIKR
notes: as for B5
Kd [3]: 0.477 nM
koff [3]: 4.69e-05 s⁻¹
kon [3]: 98200 M⁻¹ s⁻¹
t½ [3]: 247 min
Kd [4]: 0.174 nM
koff [4]: 2.24e-05 s⁻¹
kon [4]: 129000 M⁻¹ s⁻¹
t½ [4]: 515 min
binding result [5]: no binding (tested: 50 nM)
Kd [6]: 0.674 nM
koff [6]: 0.000187 s⁻¹
kon [6]: 278000 M⁻¹ s⁻¹
t½ [6]: 62 min
Kd [7]: 0.462 nM
koff [7]: 0.000132 s⁻¹
kon [7]: 286000 M⁻¹ s⁻¹
t½ [7]: 88 min

B7: H1H27747P-N297Q (antibody, V domains shown)
VH: QVQLVESGGAVVQPGRSLRLSCAASGFTFSYYGMHWVRQAPGKGLEWVAVISYDGSKKYYADSVKGRFTISRDNSKNTLYLQMNSLRAEDTAVYYCAKDLTVDFYYGMDVWGQGTTVTVSS
VL: DIQMTQSPSSVSASVGDRVTITCRASQGISSWLAWYQQKPGKAPKLLIYATSSLQSGAPSRFSGSGSGTDFTLTISSLQPEDFATYFCQQANSFPYTFGQGTKLEIKR
notes: as for B5
Kd [3]: 3.78 nM
koff [3]: 0.000874 s⁻¹
kon [3]: 231000 M⁻¹ s⁻¹
t½ [3]: 13 min
binding result [5]: no binding (tested: 50 nM)
Kd [6]: 3.47 nM
koff [6]: 0.00228 s⁻¹
kon [6]: 657000 M⁻¹ s⁻¹
t½ [6]: 5 min
Kd [7]: 5.37 nM
koff [7]: 0.00276 s⁻¹
kon [7]: 513000 M⁻¹ s⁻¹
t½ [7]: 4 min

B10: H2aM25690N (antibody, V domains shown)
VH: EVQLLESGGGLVQPGGSLRLSCAASGFTFSNYAMTWVRQAPGTGLEWVSAISGRGSNTYYTDSVKGRFTISRDNSKNMLYLQMNSLRAEDTASYYCAKDRFTTVGNWFDPWGQGTLVTVSS
VL: DIQMTQSPSSLSASVGDRVTITCRASQSISSYLNWYQQKPGKAPKLLIYAASSLQNGVPSRFSGSGSGTDFTLTISSLQPEDFATYYCQQSYSSLPITFGQGTRLDIKR
notes: Human variable domains with mouse IgG2a Fc; tied by the numerical identifier
binding result [5]: no binding (tested: 100 nM)

B11: H2aM25685N (antibody, V domains shown)
VH: QVQLVQSGAEVREPGASVKLSCKVSGYTLTELSIHWVRQAPGKGLEWMGGFDPEEGETVYAQKFRGRVTLTEDISPDTAYMELSSLTSEDTAVYYCATPRYCNNGICYDYWGQGTLITVSS
VL: not shown
notes: as for B10
binding result [5]: no binding (tested: 100 nM)
